Source: paper PMC5589264, “Reversible unfolding of infectious prion assemblies reveals the existence of an oligomeric elementary brick” (PLoS Pathogens, 2017)

Target: the molecule itself
Assay: SEC

B1: prion protein (PrP) from 263K-infected Syrian hamster brain (natural protein)
chain: not shown
notes: also called PrP^Sc; 263K PrP^Sc
stoichiometry N: ~3
